Laboratory results: patent US20250262210A1 (TRUSTEES OF COLUMBIA UNIVERSITY IN THE CITY OF NEW YORK, published 2025)

Experiments:
RAPH1 = target: T1, RAPH1 (human, UniProt Q70E73 1-1250, limits assumed); test: IP/MS, LZTR1 wild type-FLAG, U87
T1 sequence (looked up): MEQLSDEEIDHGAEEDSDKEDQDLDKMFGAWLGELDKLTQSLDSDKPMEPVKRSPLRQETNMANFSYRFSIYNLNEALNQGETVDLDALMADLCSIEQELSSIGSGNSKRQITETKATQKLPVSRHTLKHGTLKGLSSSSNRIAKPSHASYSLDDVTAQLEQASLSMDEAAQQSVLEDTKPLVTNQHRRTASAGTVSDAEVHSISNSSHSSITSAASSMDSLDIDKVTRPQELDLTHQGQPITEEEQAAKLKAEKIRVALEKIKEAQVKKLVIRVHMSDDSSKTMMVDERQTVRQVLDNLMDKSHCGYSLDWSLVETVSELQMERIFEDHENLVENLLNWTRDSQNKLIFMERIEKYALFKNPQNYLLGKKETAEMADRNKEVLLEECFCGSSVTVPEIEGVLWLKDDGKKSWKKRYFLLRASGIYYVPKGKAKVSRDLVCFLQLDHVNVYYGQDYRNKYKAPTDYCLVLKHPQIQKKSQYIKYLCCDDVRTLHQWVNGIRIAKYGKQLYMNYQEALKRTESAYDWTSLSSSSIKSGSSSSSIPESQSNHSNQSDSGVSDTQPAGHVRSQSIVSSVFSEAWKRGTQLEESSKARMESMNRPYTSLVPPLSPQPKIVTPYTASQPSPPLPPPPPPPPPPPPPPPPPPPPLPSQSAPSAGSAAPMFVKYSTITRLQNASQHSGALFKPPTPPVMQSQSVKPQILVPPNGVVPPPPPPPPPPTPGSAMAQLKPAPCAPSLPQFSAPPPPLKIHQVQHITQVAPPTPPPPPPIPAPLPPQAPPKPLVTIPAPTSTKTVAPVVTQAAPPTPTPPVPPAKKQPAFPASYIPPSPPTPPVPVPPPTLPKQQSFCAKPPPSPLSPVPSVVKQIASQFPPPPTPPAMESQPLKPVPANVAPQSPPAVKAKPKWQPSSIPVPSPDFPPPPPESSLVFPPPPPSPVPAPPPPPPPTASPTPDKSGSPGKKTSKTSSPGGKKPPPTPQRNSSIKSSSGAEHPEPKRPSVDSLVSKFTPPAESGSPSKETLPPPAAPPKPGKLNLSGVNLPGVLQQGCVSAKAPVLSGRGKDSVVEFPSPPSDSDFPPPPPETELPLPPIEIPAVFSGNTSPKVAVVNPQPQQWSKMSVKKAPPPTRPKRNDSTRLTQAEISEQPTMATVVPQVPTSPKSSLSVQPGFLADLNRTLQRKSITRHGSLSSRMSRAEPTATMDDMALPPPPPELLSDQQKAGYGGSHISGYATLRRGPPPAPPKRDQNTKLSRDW
Method in brief: (§1)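 Gel slices were reduced with 5 mM DTT, alkylated with 11 mM IAA and digested overnight at 37° C. with trypsin. Peptides were analysed on an Orbitrap Fusion Tribrid by LC-MS/MS.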

SREBF2 = target: T2, SREBF2 (human, UniProt Q12772 1-1141, limits assumed); test: IP/MS, LZTR1 wild type-FLAG, U87
T2 sequence (looked up): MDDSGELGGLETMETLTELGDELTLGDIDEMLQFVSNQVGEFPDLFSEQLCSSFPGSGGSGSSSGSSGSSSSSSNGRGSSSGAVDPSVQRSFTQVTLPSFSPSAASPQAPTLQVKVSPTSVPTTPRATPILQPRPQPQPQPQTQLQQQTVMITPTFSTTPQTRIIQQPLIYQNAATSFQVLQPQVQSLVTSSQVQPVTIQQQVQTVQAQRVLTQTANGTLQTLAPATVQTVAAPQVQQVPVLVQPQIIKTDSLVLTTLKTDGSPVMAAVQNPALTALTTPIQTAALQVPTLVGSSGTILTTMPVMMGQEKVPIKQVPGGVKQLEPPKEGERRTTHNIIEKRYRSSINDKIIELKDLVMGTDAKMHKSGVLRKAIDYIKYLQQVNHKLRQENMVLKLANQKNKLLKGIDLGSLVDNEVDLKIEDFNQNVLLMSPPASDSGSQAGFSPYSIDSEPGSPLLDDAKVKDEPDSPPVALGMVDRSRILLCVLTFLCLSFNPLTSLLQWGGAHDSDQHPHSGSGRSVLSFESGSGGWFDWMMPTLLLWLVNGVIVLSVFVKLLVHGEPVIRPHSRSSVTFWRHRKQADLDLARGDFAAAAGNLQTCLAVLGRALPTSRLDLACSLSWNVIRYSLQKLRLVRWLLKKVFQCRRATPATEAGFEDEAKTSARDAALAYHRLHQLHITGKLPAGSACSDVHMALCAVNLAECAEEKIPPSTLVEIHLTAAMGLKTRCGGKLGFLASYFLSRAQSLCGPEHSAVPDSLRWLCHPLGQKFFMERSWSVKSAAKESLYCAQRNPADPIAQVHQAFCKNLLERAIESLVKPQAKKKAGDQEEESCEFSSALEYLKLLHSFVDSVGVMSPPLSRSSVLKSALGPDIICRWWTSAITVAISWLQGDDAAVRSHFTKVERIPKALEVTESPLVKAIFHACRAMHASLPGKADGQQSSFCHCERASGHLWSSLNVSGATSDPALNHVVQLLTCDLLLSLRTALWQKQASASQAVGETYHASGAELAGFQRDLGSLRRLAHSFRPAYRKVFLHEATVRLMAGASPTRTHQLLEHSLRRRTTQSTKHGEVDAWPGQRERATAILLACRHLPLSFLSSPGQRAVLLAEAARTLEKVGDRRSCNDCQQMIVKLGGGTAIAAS
Method in brief: as §1

B1: LZTR1-FLAG (other, human, UniProt Q8N653 1-840, looked up)
chain: MAGPGSTGGQIGAAALAGGARSKVAPSVDFDHSCSDSVEYLTLNFGPFETVHRWRRLPPCDEFVGARRSKHTVVAYKDAIYVFGGDNGKTMLNDLLRFDVKDCSWCRAFTTGTPPAPRYHHSAVVYGSSMFVFGGYTGDIYSNSNLKNKNDLFEYKFATGQWTEWKIEGRLPVARSAHGATVYSDKLWIFAGYDGNARLNDMWTIGLQDRELTCWEEVAQSGEIPPSCCNFPVAVCRDKMFVFSGQSGAKITNNLFQFEFKDKTWTRIPTEHLLRGSPPPPQRRYGHTMVAFDRHLYVFGGAADNTLPNELHCYDVDFQTWEVVQPSSDSEVGGAEVPERACASEEVPTLTYEERVGFKKSRDVFGLDFGTTSAKQPTQPASELPSGRLFHAAAVISDAMYIFGGTVDNNIRSGEMYRFQFSCYPKCTLHEDYGRLWESRQFCDVEFVLGEKEECVQGHVAIVTARSRWLRRKITQARERLAQKLEQEAAPVPREAPGVAAGGARPPLLHVAIREAEARPFEVLMQFLYTDKIKYPRKGHVEDVLLIMDVYKLALSFQLCRLEQLCRQYIEASVDLQNVLVVCESAARLQLSQLKEHCLNFVVKESHFNQVIMMKEFERLSSPLIVEIVRRKQQPPPRTPLDQPVDIGTSLIQDMKAYLEGAGAEFCDITLLLDGHPRPAHKAILAARSSYFEAMFRSFMPEDGQVNISIGEMVPSRQAFESMLRYIYYGEVNMPPEDSLYLFAAPYYYGFYNNRLQAYCKQNLEMNVTVQNVLQILEAADKTQALDMKRHCLHIIVHQFTKVSKLPTLRSLSQQLLLDIIDSLASHISDKQCAELGADI
notes: Expressed in HEK 293T, HeLa or U87 cells; used as cell lysate; also called LZTR1 wild type-FLAG; LZTR1 WT; not shown: FLAG tag at the C-terminus
binding result (RAPH1): binds
binding result (SREBF2): binds
